Results: paper PMC10400651, “Gain-of-function mutant p53 together with ERG proto-oncogene drive prostate cancer by beta-catenin activation and pyrimidine synthesis”

Biological target: p53 WT (UniProt P04637 1-393)
Assay: EMSA; Thermo EMSA kit (20148) protocol; 6% native PAGE; supershift with 1 ug anti-p53 for 1 h at room temperature; recombinant p53 eluted in PBS; buffer, salt and pH
Conditions: protein: recombinant; tags: untagged after thrombin cleavage of GST; chain copies: 4; label: biotin; blunt

p53 WT, sequence (P04637 whole entry): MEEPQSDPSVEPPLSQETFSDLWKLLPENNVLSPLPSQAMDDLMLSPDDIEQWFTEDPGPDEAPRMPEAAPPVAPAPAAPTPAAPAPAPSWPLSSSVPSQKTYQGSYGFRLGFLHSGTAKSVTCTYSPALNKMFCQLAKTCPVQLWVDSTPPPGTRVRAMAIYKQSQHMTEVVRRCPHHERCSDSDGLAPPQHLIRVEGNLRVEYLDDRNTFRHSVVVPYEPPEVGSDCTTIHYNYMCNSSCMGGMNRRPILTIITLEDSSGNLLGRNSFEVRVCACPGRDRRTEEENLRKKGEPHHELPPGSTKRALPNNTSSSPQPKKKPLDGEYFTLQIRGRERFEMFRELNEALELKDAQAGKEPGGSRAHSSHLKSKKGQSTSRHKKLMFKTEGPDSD

B1: CTNNB1-probe1 (MP53BS) (dsDNA)
DNA 1: GCCCCCTCGCGCCCCGCCCCTTGTC
DNA 2: GACAAGGGGCGGGGCGCGAGGGGGC
B1: no binding.
